Data reported in the supplement of paper PMC9112550, “Optimization of the antimicrobial peptide Bac7 by deep mutational scanning” (BMC Biology, 2022).

These sequences were tested on Escherichia coli TOP10 (assay: shrunken log2 fold change of peptide-encoding DNA abundance (4.5 h post-induction vs induction); higher = less antimicrobial activity (less host growth inhibition)). Settings: time post-induction: 4.5 h; library: site-saturation at positions 5, 18, 19, 20.
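Note: peptides expressed intracellularly from a pBAD plasmid library in pooled LB shake-flask culture, induced with 0.3% L-arabinose, DNA abundance read by NGS, three biological replicates, DESeq2 with apeglm shrinkage.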

Sequence	shrunken log2 fold change
RRIRWRPPRLPRPRPRPLFWPRP	0.373
RRIRWRPPRLPRPRPRPLGTPRP	0.0928
RRIRWRPPRLPRPRPRPLGYPRP	-0.24
RRIRWRPPRLPRPRPRPLIPPRP	-0.327
RRIRWRPPRLPRPRPRPLLMPRP	0.284
RRIRWRPPRLPRPRPRPLMKPRP	-0.0639
RRIRWRPPRLPRPRPRPLMWPRP	0.173
RRIRWRPPRLPRPRPRPLNLPRP	-0.184
RRIRWRPPRLPRPRPRPLPDPRP	0.672
RRIRWRPPRLPRPRPRPLPLPRP	0.477
RRIRWRPPRLPRPRPRPLQIPRP	-0.125
RRIRWRPPRLPRPRPRPLQTPRP	0.957
RRIRWRPPRLPRPRPRPLRDPRP	0.655
RRIRWRPPRLPRPRPRPLRFPRP	0.399
RRIRWRPPRLPRPRPRPLRTPRP	1.39
RRIRWRPPRLPRPRPRPLTRPRP	2.04
RRIRWRPPRLPRPRPRPLVMPRP	0.000565
RRIRWRPPRLPRPRPRPLWAPRP	0.417
RRIRWRPPRLPRPRPRPLYTPRP	-0.24
RRIRWRPPRLPRPRPRPMACPRP	-0.0978
RRIRWRPPRLPRPRPRPMAHPRP	0.0444
RRIRWRPPRLPRPRPRPMAYPRP	-0.0846
RRIRWRPPRLPRPRPRPMCHPRP	-0.115
RRIRWRPPRLPRPRPRPMDCPRP	-0.0839
RRIRWRPPRLPRPRPRPMDLPRP	-0.214

Sequence	shrunken log2 fold change
RRIRWRPPRLPRPRPRPMDPPRP	0.0622
RRIRWRPPRLPRPRPRPMEAPRP	0.0987
RRIRWRPPRLPRPRPRPMERPRP	-0.0173
RRIRWRPPRLPRPRPRPMGYPRP	-0.132
RRIRWRPPRLPRPRPRPMHRPRP	-0.0497
RRIRWRPPRLPRPRPRPMHVPRP	0.0255
RRIRWRPPRLPRPRPRPMINPRP	-0.212
RRIRWRPPRLPRPRPRPMISPRP	0.248
RRIRWRPPRLPRPRPRPMMPPRP	0.0187
RRIRWRPPRLPRPRPRPMNAPRP	0.327
RRIRWRPPRLPRPRPRPMNRPRP	-0.00448
RRIRWRPPRLPRPRPRPMPFPRP	-0.133
RRIRWRPPRLPRPRPRPMPGPRP	0.0623
RRIRWRPPRLPRPRPRPMPTPRP	0.721
RRIRWRPPRLPRPRPRPMRGPRP	0.754
RRIRWRPPRLPRPRPRPMRKPRP	1.4
RRIRWRPPRLPRPRPRPMRNPRP	0.315
RRIRWRPPRLPRPRPRPMVDPRP	-0.0461
RRIRWRPPRLPRPRPRPMVFPRP	0.274
RRIRWRPPRLPRPRPRPMYGPRP	-0.0856
RRIRWRPPRLPRPRPRPNANPRP	0.109
RRIRWRPPRLPRPRPRPNARPRP	0.0903
RRIRWRPPRLPRPRPRPNAVPRP	0.259
RRIRWRPPRLPRPRPRPNCAPRP	0.255
RRIRWRPPRLPRPRPRPNCGPRP	0.192

Sequence	shrunken log2 fold change
RRIRWRPPRLPRPRPRPNCVPRP	0.0603
RRIRWRPPRLPRPRPRPNDEPRP	0.0507
RRIRWRPPRLPRPRPRPNDTPRP	-0.268
RRIRWRPPRLPRPRPRPNENPRP	-0.0342
RRIRWRPPRLPRPRPRPNEPPRP	-0.000964
RRIRWRPPRLPRPRPRPNEYPRP	-0.39
RRIRWRPPRLPRPRPRPNFYPRP	-0.232
RRIRWRPPRLPRPRPRPNHEPRP	-0.197
RRIRWRPPRLPRPRPRPNHGPRP	-0.16
RRIRWRPPRLPRPRPRPNHVPRP	-0.651
RRIRWRPPRLPRPRPRPNIGPRP	0.138
RRIRWRPPRLPRPRPRPNIKPRP	-0.384
RRIRWRPPRLPRPRPRPNITPRP	-0.161
RRIRWRPPRLPRPRPRPNIVPRP	-0.112
RRIRWRPPRLPRPRPRPNKRPRP	0.149
RRIRWRPPRLPRPRPRPNKWPRP	-0.0175
RRIRWRPPRLPRPRPRPNLIPRP	0.0144
RRIRWRPPRLPRPRPRPNLKPRP	-0.0669
RRIRWRPPRLPRPRPRPNNPPRP	-0.631
RRIRWRPPRLPRPRPRPNNYPRP	-0.571
RRIRWRPPRLPRPRPRPNQHPRP	-0.071
RRIRWRPPRLPRPRPRPNQTPRP	0.0653
RRIRWRPPRLPRPRPRPNRAPRP	0.0222
RRIRWRPPRLPRPRPRPNRKPRP	-0.239
RRIRWRPPRLPRPRPRPNSEPRP	-0.071

Sequence	shrunken log2 fold change
RRIRWRPPRLPRPRPRPNSMPRP	-0.114
RRIRWRPPRLPRPRPRPNSNPRP	-0.583
RRIRWRPPRLPRPRPRPNSVPRP	-0.325
RRIRWRPPRLPRPRPRPNTSPRP	-0.336
RRIRWRPPRLPRPRPRPNVCPRP	0.0917
RRIRWRPPRLPRPRPRPNVRPRP	0.057
RRIRWRPPRLPRPRPRPNYDPRP	-0.24
RRIRWRPPRLPRPRPRPPAHPRP	0.498
RRIRWRPPRLPRPRPRPPAMPRP	1.57
RRIRWRPPRLPRPRPRPPDEPRP	0.654
RRIRWRPPRLPRPRPRPPDQPRP	0.694
RRIRWRPPRLPRPRPRPPFIPRP	-0.117
RRIRWRPPRLPRPRPRPPFKPRP	0.331
RRIRWRPPRLPRPRPRPPGFPRP	0.209
RRIRWRPPRLPRPRPRPPGYPRP	0.684
RRIRWRPPRLPRPRPRPPHCPRP	0.754
RRIRWRPPRLPRPRPRPPHEPRP	0.0628
RRIRWRPPRLPRPRPRPPHMPRP	0.112
RRIRWRPPRLPRPRPRPPHRPRP	0.321
RRIRWRPPRLPRPRPRPPIRPRP	-0.0117
RRIRWRPPRLPRPRPRPPLQPRP	0.475
RRIRWRPPRLPRPRPRPPNPPRP	0.878
RRIRWRPPRLPRPRPRPPRMPRP	0.348
RRIRWRPPRLPRPRPRPPSIPRP	0.357
RRIRWRPPRLPRPRPRPPWCPRP	0.183

Sequence	shrunken log2 fold change
RRIRWRPPRLPRPRPRPPWGPRP	0.483
RRIRWRPPRLPRPRPRPPWYPRP	-0.0946
RRIRWRPPRLPRPRPRPPYIPRP	-0.3
RRIRWRPPRLPRPRPRPPYPPRP	0.0905
RRIRWRPPRLPRPRPRPQCVPRP	-0.0311
RRIRWRPPRLPRPRPRPQDEPRP	-0.143
RRIRWRPPRLPRPRPRPQEYPRP	-0.0612
RRIRWRPPRLPRPRPRPQFFPRP	-0.134
RRIRWRPPRLPRPRPRPQFGPRP	0.0671
RRIRWRPPRLPRPRPRPQFSPRP	0.053
RRIRWRPPRLPRPRPRPQGTPRP	0.104
RRIRWRPPRLPRPRPRPQHMPRP	-0.459
RRIRWRPPRLPRPRPRPQINPRP	-0.348
RRIRWRPPRLPRPRPRPQMIPRP	-0.0866
RRIRWRPPRLPRPRPRPQSCPRP	0.0975
RRIRWRPPRLPRPRPRPQVGPRP	0.0734
RRIRWRPPRLPRPRPRPQVKPRP	0.0306
RRIRWRPPRLPRPRPRPQVMPRP	0.209
RRIRWRPPRLPRPRPRPQWKPRP	-0.17
RRIRWRPPRLPRPRPRPQWQPRP	0.0209
RRIRWRPPRLPRPRPRPQWTPRP	0.787
RRIRWRPPRLPRPRPRPQYTPRP	-0.384
RRIRWRPPRLPRPRPRPQYVPRP	0.00889
RRIRWRPPRLPRPRPRPRAIPRP	0.539
RRIRWRPPRLPRPRPRPRATPRP	1.26

Sequence	shrunken log2 fold change
RRIRWRPPRLPRPRPRPRCFPRP	0.398
RRIRWRPPRLPRPRPRPRDIPRP	-0.244
RRIRWRPPRLPRPRPRPRDTPRP	0.11
RRIRWRPPRLPRPRPRPREGPRP	1.28
RRIRWRPPRLPRPRPRPRFDPRP	0.147
RRIRWRPPRLPRPRPRPRFLPRP	0.0174
RRIRWRPPRLPRPRPRPRGLPRP	0.698
RRIRWRPPRLPRPRPRPRGNPRP	0.423
RRIRWRPPRLPRPRPRPRHNPRP	0.576
RRIRWRPPRLPRPRPRPRIFPRP	0.499
RRIRWRPPRLPRPRPRPRIYPRP	0.068
RRIRWRPPRLPRPRPRPRKKPRP	0.408
RRIRWRPPRLPRPRPRPRKQPRP	-0.0611
RRIRWRPPRLPRPRPRPRKWPRP	0.526
RRIRWRPPRLPRPRPRPRMSPRP	0.139
RRIRWRPPRLPRPRPRPRNMPRP	-0.0758
RRIRWRPPRLPRPRPRPRPLPRP	0.158
RRIRWRPPRLPRPRPRPRQPPRP	0.743
RRIRWRPPRLPRPRPRPRRQPRP	-0.0653
RRIRWRPPRLPRPRPRPRSEPRP	0.0877
RRIRWRPPRLPRPRPRPRSRPRP	0.385
RRIRWRPPRLPRPRPRPRVEPRP	0.0508
RRIRWRPPRLPRPRPRPRWHPRP	0.271
RRIRWRPPRLPRPRPRPRWKPRP	-0.0506
RRIRWRPPRLPRPRPRPRWVPRP	0.454
